# From US7005504 (Genentech, dated 2006)
# Where two headings read alike, the source gives them in different places.
# Key:
# [1] = molecular target: T1, recombinant human IL-8, (ser-IL-8)72 (human, UniProt P10145 28-99, In some assays the protein was iodinated (125I on tyrosine) or coated on a plate. The letters are unchanged.); experiment: cell-based or functional assay
# T1 sequence: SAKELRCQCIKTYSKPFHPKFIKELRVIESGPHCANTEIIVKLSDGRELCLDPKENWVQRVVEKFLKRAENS
# rabbit IL-8 [2] = molecular target: T2, rabbit IL-8 (rabbit, UniProt P19874 23-101, limits assumed); experiment: cell-based or functional assay
# T2 sequence (looked up): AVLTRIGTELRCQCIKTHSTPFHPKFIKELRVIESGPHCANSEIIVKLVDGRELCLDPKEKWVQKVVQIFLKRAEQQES
# [3] = molecular target: T1, recombinant human IL-8, (ser-IL-8)72; experiment: cell-based or functional assay; remark: listed apart in the source
# human monomeric IL-8 = human monomeric IL-8 (human); experiment: cell-based or functional assay
# rabbit IL-8 [4] = molecular target: T2, rabbit IL-8; experiment: cell-based or functional assay; remark: listed apart in the source
# [5] = molecular target: T1, recombinant human IL-8, (ser-IL-8)72; experiment: inhibition of 125I-IL-8 binding to IL-8 receptors on human neutrophils; the legend column has no head, the text calls the values of this figure IC50's
# [6] = molecular target: T1, recombinant human IL-8, (ser-IL-8)72; experiment: 125I-IL-8 neutrophil competition; reference not named in the sentence (chimeric F(ab) by Table 4)
# [7] = molecular target: T1, recombinant human IL-8, (ser-IL-8)72; experiment: inhibition of 125I-IL-8 binding to the IL-8 receptors on human neutrophils (Bound/Total against cold ligand in nM)
# rhesus IL-8 = molecular target: T3, rhesus IL-8 (rhesus, UniProt P67813 23-101, limits assumed); experiment: cell-based or functional assay
# T3 sequence (looked up): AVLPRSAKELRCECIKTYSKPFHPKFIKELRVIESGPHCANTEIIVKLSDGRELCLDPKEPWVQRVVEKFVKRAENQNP
# [8] = molecular target: T1, recombinant human IL-8, (ser-IL-8)72; experiment: 125I-IL-8 neutrophil competition, against F(ab)-1
# [9] = molecular target: T1, recombinant human IL-8, (ser-IL-8)72; experiment: inhibition of 125I-IL-8 binding to the IL-8 receptors on human neutrophils (Bound/Total against cold ligand in nM); remark: listed apart in the source
binder,measurement,setting,value
"chimeric 6G4.2.5 Fab (Fab, V domains shown) VH: EIQLQQSGPELMKPGASVKISCKASGYSFSSHYMHWVKQSHGKSLEWIGYIDPSNGETTYNQKFKGKATLTVDTSSSTANVHLSSLTSDDSAVYFCARGDYRYNGDWFFDVWGAGTTVTVSS VL: DIVMTQTPLSLPVSLGDQASISCRSSQSLVHGIGNTYLHWYLQKPGQSPKLLIYKVSNRFSGVPDRFSGSGSGTDFTLRISRVEAEDLGLYFCSQSTHVPLTFGAGTKLELKR",IC50 (4 parameter fit) of the inhibition of human IL-8 (100 nM) stimulated elastase release from human neutrophils,[1],0.635 molar ratio Fab:IL-8 (x axis; 100 nM IL-8)
same,IC50 (4 parameter fit) of the inhibition of rabbit IL-8 (100 nM) stimulated elastase release from human neutrophils (absorbance 405 nM),rabbit IL-8 [2],1.04 molar ratio Fab:rIL-8 (x axis; 100 nM rIL-8)
"chimeric 5.12.14 Fab (Fab, V domains shown) VH: EVQLVESGGGLVPPGGSLKLSCAASGFIFSSYGMSWVRQTPGKSLELVATINNNGDSTYYPDSVKGRFTISRDNAKNTLYLQMSSLKSEDTAMFYCARALISSATWFGYWGQGTLVTVSA VL: DIVMTQSQKFMSTSVGDRVSVTCKASQNVGTNVAWYQQKPGQSPKALIYSSSYRYSGVPDRFTGSGSGTDFTLTISHVQSEDLADYFCQQYNIYPLTFGPGTKLELRR",IC50 (4 parameter fit) of the inhibition of human IL-8 (100 nM) stimulated elastase release from human neutrophils,[1],0.643 molar ratio Fab:IL-8 (x axis; 100 nM IL-8)
6G4V11N35A F(ab')2 leucine zipper (other) light: DIQMTQSPSSLSASVGDRVTITCRSSQSLVHGIGATYLHWYQQKPGKAPKLLIYKVSNRFSGVPSRFSGSGSGTDFTLTISSLQPEDFATYYCSQSTHVPLTFGQGTKVEIKRTVAAPSVFIFPPSDEQLKSGTASVVCLLNNFYPREAKVQWKVDNALQSGNSQESVTEQDSKDSTYSLSSTLTLSKADYEKHKVYACEVTHQGLSSPVTKSFNRGEC heavy: not shown,"average IC50, neutrophil chemotaxis",[3],1.5 nM
same,"average IC50, neutrophil chemotaxis",human monomeric IL-8,1 nM
same,"average IC50, neutrophil chemotaxis",rabbit IL-8 [4],4 nM
"6G4V11N35A F(ab')2 modified with a single 40 kD branched PEG molecule (other, may carry PEG on a lysine or the N-terminus; site not defined, one 40 kD branched PEG-succinimide (PEG2-NHS-40 KDa) per F(ab')2, on a primary amine; also called single 40 kD branched PEG-modified F(ab')2; branched(1)40 KDa-(N)-(Fab')2) light: DIQMTQSPSSLSASVGDRVTITCRSSQSLVHGIGATYLHWYQQKPGKAPKLLIYKVSNRFSGVPSRFSGSGSGTDFTLTISSLQPEDFATYYCSQSTHVPLTFGQGTKVEIKRTVAAPSVFIFPPSDEQLKSGTASVVCLLNNFYPREAKVQWKVDNALQSGNSQESVTEQDSKDSTYSLSSTLTLSKADYEKHKVYACEVTHQGLSSPVTKSFNRGEC heavy: not shown",IC50,[5],0.38 nM
"6G4V11N35A F(ab')2 modified with a single 20 kD linear PEG molecule (other, may carry PEG on a lysine or the N-terminus; site not defined, one 20 kD linear PEG-succinimide (M-SPA-20000) per F(ab')2, on a primary amine; also called single 20 kD linear PEG-modified F(ab')2; linear(1)20 KDa-(N)-(Fab')2) light: DIQMTQSPSSLSASVGDRVTITCRSSQSLVHGIGATYLHWYQQKPGKAPKLLIYKVSNRFSGVPSRFSGSGSGTDFTLTISSLQPEDFATYYCSQSTHVPLTFGQGTKVEIKRTVAAPSVFIFPPSDEQLKSGTASVVCLLNNFYPREAKVQWKVDNALQSGNSQESVTEQDSKDSTYSLSSTLTLSKADYEKHKVYACEVTHQGLSSPVTKSFNRGEC heavy: not shown",IC50,[5],0.296 nM
"humanized 6G425 F(ab)-1 (Fab, V domains shown, Fab with human kappa subgroup I light chain and human IgG1 subgroup III heavy chain of phagemid pEMX1; unaltered CDR swap; also called version 1; V1) VH: EVQLVESGGGLVQPGGSLRLSCAASGYSFSSHYMHWVRQAPGKGLEWVGYIDPSNGETTYNQKFKGRFTISRDNSKNTLYLQMNSLRAEDTAVYYCARGDYRYNGDWFFDVWGQGTLVTVSS VL: DIQMTQSPSSLSASVGDRVTITCRSSQSLVHGIGNTYLHWYQQKPGKAPKLLIYKVSNRFSGVPSRFSGSGSGTDFTLTISSLQPEDFATYYCSQSTHVPLTFGQGTKVEIKR",fold reduction in binding affinity,[6],5.5 fold
same,IC50 (read off the curve),[7],~20 nM
"6G4V11N35A Fab' modified with 40 kD linear PEG-maleimide (Fab, V domains shown, 40 kD linear methoxy-PEG-maleimide on the free cysteine in the hinge region) VH: EVQLVQSGGGLVQPGGSLRLSCAASGYSFSSHYMHWVRQAPGKGLEWVGYIDPSNGETTYNQKFKGRFTLSRDNSKNTAYLQMNSLRAEDTAVYYCARGDYRYNGDWFFDVWGQGTLVTVSS VL: DIQMTQSPSSLSASVGDRVTITCRSSQSLVHGIGATYLHWYQQKPGKAPKLLIYKVSNRFSGVPSRFSGSGSGTDFTLTISSLQPEDFATYYCSQSTHVPLTFGQGTKVEIKR","IC50, PMN chemotaxis",[3],3.7 nM
"6G4V11N35E Fab (Fab, V domains shown) VH: EVQLVQSGGGLVQPGGSLRLSCAASGYSFSSHYMHWVRQAPGKGLEWVGYIDPSNGETTYNQKFKGRFTLSRDNSKNTAYLQMNSLRAEDTAVYYCARGDYRYNGDWFFDVWGQGTLVTVSS VL: DIQMTQSPSSLSASVGDRVTITCRSSQSLVHGIGETYLHWYQQKPGKAPKLLIYKVSNRFSGVPSRFSGSGSGTDFTLTISSLQPEDFATYYCSQSTHVPLTFGQGTKVEIKR","IC50, neutrophil chemotaxis",[3],~1.2 nM
"full length 6G4V11N35A IgG1 (antibody, V domains shown, not shown: a dimerising Fc or GST) VH: EVQLVQSGGGLVQPGGSLRLSCAASGYSFSSHYMHWVRQAPGKGLEWVGYIDPSNGETTYNQKFKGRFTLSRDNSKNTAYLQMNSLRAEDTAVYYCARGDYRYNGDWFFDVWGQGTLVTVSS VL: DIQMTQSPSSLSASVGDRVTITCRSSQSLVHGIGATYLHWYQQKPGKAPKLLIYKVSNRFSGVPSRFSGSGSGTDFTLTISSLQPEDFATYYCSQSTHVPLTFGQGTKVEIKR","IC50, neutrophil chemotaxis",[3],4 nM
same,"IC50, neutrophil chemotaxis",rabbit IL-8 [4],4 nM
"humanized 6G425 F(ab)-9 (humanized 6G4V11 Fab) (Fab, V domains shown) VH: EVQLVQSGGGLVQPGGSLRLSCAASGYSFSSHYMHWVRQAPGKGLEWVGYIDPSNGETTYNQKFKGRFTLSRDNSKNTAYLQMNSLRAEDTAVYYCARGDYRYNGDWFFDVWGQGTLVTVSS VL: DIQMTQSPSSLSASVGDRVTITCRSSQSLVHGIGNTYLHWYQQKPGKAPKLLIYKVSNRFSGVPSRFSGSGSGTDFTLTISSLQPEDFATYYCSQSTHVPLTFGQGTKVEIKR","IC50, neutrophil chemotaxis",human monomeric IL-8,~15 nM
same,"IC50, neutrophil chemotaxis",rhesus IL-8,~22 nM
"humanized 6G425 F(ab)-2 (Fab, V domains shown, template F(ab)-1; also called version 2) VH: EVQLVESGGGLVQPGGSLRLSCAASGYSFSSHYMHWVRQAPGKGLEWVGYIDPSNGETTYNQKFKGRATISRDNSKNTLYLQMNSLRAEDTAVYYCARGDYRYNGDWFFDVWGQGTLVTVSS VL: DIQMTQSPSSLSASVGDRVTITCRSSQSLVHGIGNTYLHWYQQKPGKAPKLLIYKVSNRFSGVPSRFSGSGSGTDFTLTISSLQPEDFATYYCSQSTHVPLTFGQGTKVEIKR",fold decrease in IL-8 binding,[8],< 2 fold
"full length 6G4V11N35E IgG1 (antibody, V domains shown, not shown: a dimerising Fc or GST) VH: EVQLVQSGGGLVQPGGSLRLSCAASGYSFSSHYMHWVRQAPGKGLEWVGYIDPSNGETTYNQKFKGRFTLSRDNSKNTAYLQMNSLRAEDTAVYYCARGDYRYNGDWFFDVWGQGTLVTVSS VL: DIQMTQSPSSLSASVGDRVTITCRSSQSLVHGIGETYLHWYQQKPGKAPKLLIYKVSNRFSGVPSRFSGSGSGTDFTLTISSLQPEDFATYYCSQSTHVPLTFGQGTKVEIKR","IC50, neutrophil chemotaxis",[3],6 nM
same,"IC50, neutrophil chemotaxis",rabbit IL-8 [4],2 nM
"humanized 6G425 F(ab)-3 (Fab, V domains shown, template F(ab)-1; also called version 3) VH: EVQLVESGGGLVQPGGSLRLSCAASGYSFSSHYMHWVRQAPGKGLEWVGYIDPSNGETTYNQKFKGRFTISVDNSKNTLYLQMNSLRAEDTAVYYCARGDYRYNGDWFFDVWGQGTLVTVSS VL: DIQMTQSPSSLSASVGDRVTITCRSSQSLVHGIGNTYLHWYQQKPGKAPKLLIYKVSNRFSGVPSRFSGSGSGTDFTLTISSLQPEDFATYYCSQSTHVPLTFGQGTKVEIKR",fold decrease in IL-8 binding,[8],< 2 fold
"humanized 6G425 F(ab)-8 (Fab, V domains shown) VH: EVQLVESGGGLVQPGGSLRLSCAASGYSFSSHYMHWVKQAPGKGLEWVGYIDPSNGETTYNQKFKGRFTLSRDNSKNTAYLQMNSLRAEDTAVYYCARGDYRYNGDWFFDVWGQGTLVTVSS VL: DIQMTQSPSSLSASVGDRVTITCRSSQSLVHGIGNTYLHWYQQKPGKAPKLLIYKVSNRFSGVPSRFSGSGSGTDFTLTISSLQPEDFATYYCSQSTHVPLTFGQGTKVEIKR","IC50, neutrophil chemotaxis",[3],12 nM
"6G4V11N35A Fab (Fab, V domains shown, also called 6G4.2.5V11N35A Fab; Fab control) VH: EVQLVQSGGGLVQPGGSLRLSCAASGYSFSSHYMHWVRQAPGKGLEWVGYIDPSNGETTYNQKFKGRFTLSRDNSKNTAYLQMNSLRAEDTAVYYCARGDYRYNGDWFFDVWGQGTLVTVSS VL: DIQMTQSPSSLSASVGDRVTITCRSSQSLVHGIGATYLHWYQQKPGKAPKLLIYKVSNRFSGVPSRFSGSGSGTDFTLTISSLQPEDFATYYCSQSTHVPLTFGQGTKVEIKR","IC50, PMN chemotaxis",[3],0.8 nM
same,"average IC50, neutrophil chemotaxis",[3],2.7 nM
same,"average IC50, neutrophil chemotaxis",human monomeric IL-8,1 nM
same,"average IC50, neutrophil chemotaxis",rabbit IL-8 [4],5 nM
same,IC50 (read off the curve),[9],~1 nM
